Article PMC6656774, “Functional importance of the oligomer formation of the cyanobacterial H^+ pump Gloeobacter rhodopsin” (Scientific Reports, 2019)
Like-named read-outs stand apart in the source and are kept apart here.

How the values were obtained:
[1] = target: T1, Asp121 (UniProt position 121, AYRYVDWLLTV); assay: UV-vis; conditions: room temperature; 0.3 M NaCl; 6-mix buffer (1.37 mM citric acid, 0.46 mM ADA, 1.04 mM MOPS, 1.25 mM TAPS, 0.81 mM CHES, 1.39 mM CAPS); pH adjusted with HCl or NaOH; unphotolyzed (dark) state, retinal-bound, in nanodisc
[2] = target: T1, Asp121; conditions: DDM-solubilized, monomeric; cited from earlier work
[3] = target: Asp97 (UniProt position 97, VFRYIDWLLTV); conditions: monomeric proteorhodopsin; cited from earlier work
[4] = target: the molecule itself; assay: sucrose density gradient centrifugation + absorption spectra (MSP amount per GR from A280); higher-density nanodisc band NDH, reconstituted at pH 5.5, separated on a 10-40% sucrose gradient; spectra in 6-mix buffer, pH 7, 0.3 M NaCl, set to the same peak at about 540 nm

Gloeobacter rhodopsin (GR), wild type, monomer in nanodisc (NDL) (Gloeobacter violaceus)
pKa [1]: 7.41

Gloeobacter rhodopsin (GR), wild type, trimer in nanodisc (NDH) (Gloeobacter violaceus)
pKa [1]: 4.52

Gloeobacter rhodopsin H87M, DDM-solubilized (Gloeobacter violaceus; H87M)
pKa [2]: approximately 4

Gloeobacter rhodopsin H87M, monomer in nanodisc (Gloeobacter violaceus; H87M)
pKa [1]: approximately 3.72

Proteorhodopsin (PR), monomeric (uncultured marine gamma-proteobacterium (the article says only that the gene came from a DNA fragment of gamma-proteobacteria))
pKa [3]: 7.5–7.7

B1: Gloeobacter rhodopsin (GR), wild type, C-terminal His-tagged (natural protein, Gloeobacter violaceus, UniProt Q7NP59 1-298, looked up)
chain: MLMTVFSSAPELALLGSTFAQVDPSNLSVSDSLTYGQFNLVYNAFSFAIAAMFASALFFFSAQALVGQRYRLALLVSAIVVSIAGYHYFRIFNSWDAAYVLENGVYSLTSEKFNDAYRYVDWLLTVPLLLVETVAVLTLPAKEARPLLIKLTVASVLMIATGYPGEISDDITTRIIWGTVSTIPFAYILYVLWVELSRSLVRQPAAVQTLVRNMRWLLLLSWGVYPIAYLLPMLGVSGTSAAVGVQVGYTIADVLAKPVFGLLVFAIALVKTKADQESSEPHAAIGAAANKSGGSLIS
modifications: retinal bound by a protonated Schiff base linkage (residue not given)
notes: Gloeobacter rhodopsin, H+ pump from the cyanobacterium Gloeobacter violaceus; The same protein was trapped as a trimer (nanodisc band NDH) and as a monomer (nanodisc band NDL) after reconstitution at pH 5.5; also called wild-type GR; trimeric GR (in NDH); source: E. coli BL21(DE3), solubilized with DDM, purified (Ni-NTA agarose); reconstituted into MSP1E3D1/POPC nanodiscs or kept in DDM
MSP amount per GR, NDL against NDH [4]: 3.3 fold
stoichiometry N [4]: 3
